# Measurements from IntAct's records for PubMed 23376919.
# B1: Interleukin-1 receptor-associated kinase 3 (Mus musculus), Q8K4B2 (parent)
# chain: MAGRCGARGALSPQLLLFDLPPALLGELCGILDSCDGPLGWRGLAERLSNSWLDVRHIEKYVNQGKSGTRELLWSWAQKNKTIGDLLEVLQDMGHQRAIHLIINYGVSWTPSVQTHHELPFPSFPPEVKHACRENDPGPLEPANVTVDNVLVPEHNEKGTLQKTPISFQSILEGTKHFHKDFLIGEGEIFEVYRVDIRNQAYAVKLFKQEKKMQLKKHWKRFLSELEVLLLFRHPHILELAAYFTETEKLCLVYPYMSNGTLFDRLQCTNGTTPLSWHVRISVLIGIAKAIQYLHNTQPCAVICGNVSSANILLDDQLQPKLTDFAAAHFRPNLEQQSSTINMTGGGRKHLWYMPEEYIRQGRLSVKTDVYSFGIVIMEVLTGCKVVLDDPKHVQLRDLLMELMEKRGLDSCLSFLDRKIPPCPRNFSAKLFSLAGRCVATKAKLRPTMDEVLSSLESTQPSLYFAEDPPTSLKSFRCPSPLFLDNVPSIPVEDDENQNNHSVPPKEVLGTDRVTQKTPFECSQSEVTFLGLDRNRGNRGSEADCNVPSSSHEECWSPELVAPSQDLSPTVISLGSSWEVPGHSYGSKPMEKRCSSGLFCSEHEQSKKQ
# partner: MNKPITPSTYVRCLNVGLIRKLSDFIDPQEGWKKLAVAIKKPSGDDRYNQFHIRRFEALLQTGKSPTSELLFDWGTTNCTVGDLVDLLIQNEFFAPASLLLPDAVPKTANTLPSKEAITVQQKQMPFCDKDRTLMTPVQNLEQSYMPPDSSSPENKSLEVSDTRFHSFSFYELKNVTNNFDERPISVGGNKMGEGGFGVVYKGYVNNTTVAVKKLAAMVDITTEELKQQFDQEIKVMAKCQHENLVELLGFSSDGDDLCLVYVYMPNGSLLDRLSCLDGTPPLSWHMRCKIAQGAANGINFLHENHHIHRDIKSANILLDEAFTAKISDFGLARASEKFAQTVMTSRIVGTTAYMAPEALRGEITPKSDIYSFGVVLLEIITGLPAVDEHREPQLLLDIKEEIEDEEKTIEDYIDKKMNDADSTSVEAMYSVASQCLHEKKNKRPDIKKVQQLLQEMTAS
# B2: Interleukin-1 receptor-associated kinase 3 (Mus musculus), Q8K4B2 (parent)
# chain: B1 chain
# partner: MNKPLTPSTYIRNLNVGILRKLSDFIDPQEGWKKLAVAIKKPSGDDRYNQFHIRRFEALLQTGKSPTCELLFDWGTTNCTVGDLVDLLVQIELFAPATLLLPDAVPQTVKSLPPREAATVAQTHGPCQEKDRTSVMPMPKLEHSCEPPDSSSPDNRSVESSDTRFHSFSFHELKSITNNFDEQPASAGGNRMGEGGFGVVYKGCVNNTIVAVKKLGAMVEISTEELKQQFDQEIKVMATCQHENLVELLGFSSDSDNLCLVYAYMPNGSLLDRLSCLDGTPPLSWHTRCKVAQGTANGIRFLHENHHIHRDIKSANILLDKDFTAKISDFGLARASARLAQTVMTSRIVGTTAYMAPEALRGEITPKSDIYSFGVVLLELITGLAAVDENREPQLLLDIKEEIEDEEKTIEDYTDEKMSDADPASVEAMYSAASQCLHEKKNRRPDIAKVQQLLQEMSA
# B3: Interleukin-1 receptor-associated kinase 4 (Mus musculus), Q8R4K2 (parent)
# chain: B2 partner
# partner: B1 chain
# Variants of: B1
# Conditions: with irak4_human IRAK4, Q9NWZ3
row,effect of a mutation on the interaction,Variant
1,disrupting interaction,W74A

# Variants of: B1
# Conditions: with irak4_human IRAK4, Q9NWZ3
# Remark: another data set of the same source
row,effect of a mutation on the interaction,Variant
1,decreasing interaction,Q78G

# Variants of: B1
# Conditions: with irak4_human IRAK4, Q9NWZ3
# Remark: another data set of the same source
row,effect of a mutation on the interaction,Variant
1,decreasing interaction,E71A

# Variants of: B1
# Conditions: with irak4_human IRAK4, Q9NWZ3
# Remark: another data set of the same source
row,effect of a mutation on the interaction,Variant
1,decreasing interaction,E71A;Q78G

# Variants of: B2
# Conditions: with irak4_mouse Irak4, Q8R4K2
row,effect of a mutation on the interaction,Variant
1,decreasing interaction,E71A

# Variants of: B2
# Conditions: with irak4_mouse Irak4, Q8R4K2
# Remark: another data set of the same source
row,effect of a mutation on the interaction,Variant
1,disrupting interaction,E71A;Q78G

# Variants of: B2
# Conditions: with irak4_mouse Irak4, Q8R4K2
# Remark: another data set of the same source
row,effect of a mutation on the interaction,Variant
1,decreasing interaction,Q78G

# Variants of: B2
# Conditions: with irak4_mouse Irak4, Q8R4K2
# Remark: another data set of the same source
row,effect of a mutation on the interaction,Variant
1,disrupting interaction,W74A

# Variants of: B3
# Conditions: with irak3_mouse Irak3, Q8K4B2
row,effect of a mutation on the interaction,Variant
1,decreasing interaction,F25D
